# Measurements reported in US9951373B2, “Oplophorus-derived luciferases, novel coelenterazine substrates, and methods of use” (Promega Corporation, priority 2010, dated 2018).
# B1: L27V: 9B8 opt+K33N variant with L27V, T39T, K43R, Y68D (SEQ ID NO: 89) (protein)
# chain: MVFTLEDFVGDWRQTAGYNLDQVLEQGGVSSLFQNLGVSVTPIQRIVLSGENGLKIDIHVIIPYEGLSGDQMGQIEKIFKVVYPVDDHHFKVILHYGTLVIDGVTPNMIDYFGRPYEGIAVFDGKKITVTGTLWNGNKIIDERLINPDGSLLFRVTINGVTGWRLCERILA
# Assays:
# [1] = system: NIH3T3 cells; assay: Luminescence of OgLuc variants expressed in NIH3T3 cells; assay type: cell-based
# Procedure: The PCR library in the pF4Ag-based non-fusion background was screened for additional variants with increased luminescence compared to 9B8 opt+K33N+170G (SEQ ID NOs: 68 and 69). Selected variants were then assayed in HEK293 and NIH3T3 cells. For each cell type, 15,000 cells were plated and grown overnight at 37° C. The next day, the cells were transfected as described in Example 25 with 10 ng pGL4.13 (Promega Corp.) as a transfection control and 100 ng of the OgLuc test DNA. The media was removed, and the cells were lysed with 100 μL of lysis buffer as described in Example 25 except the lysis buffer contained 100 mM MES pH 6.0 instead of HEPES, and luminescence measured using a GLOMAX® Luminometer.
# Based on the above data, further combination variants were designed and generated (see Table 10) in the context of the pF4Ag-based non-fusion vector background without the 170G. The variants were analyzed in E. coli, HEK293 and NIH3T3 cells as described above and compared to 9B8 opt+K33N. The variants were also examined for luminescence with native coelenterazine.
# The brightness of the variants expressed in HEK293 and NIH3T3 cells was measured as described previously. The luminescence of the variants was normalized to the luminescence generated by 9B8 opt (Table 27).
# [2] = system: NIH3T3 cells; assay: Luminescence in sandwich background, NIH3T3 cells; assay type: cell-based; conditions: non-sandwich versus sandwich
# Procedure: The PCR library in the Id-OgLuc-HT7 sandwich background was screened for additional variants with increased luminescence compared to 9B8 opt+K33N in sandwich background. Selected variants were then assayed in HEK293 and NIH3T3 cells. […] 1F7 (F) (SEQ ID NOs: 84 and 85) and 15H1 (F) (SEQ ID NOs: 86 and 87) had at least 1.3 fold-increase in luminescence in E. coli. 1F7 (F) was brighter than 9B8 opt+K33N in the sandwich background in HEK293 and NIH3T3 cells.
# The variants 9B8 opt+K33N+T39T+K43R+Y68D (“V2”; SEQ ID NOs: 92 and 93), 9B8 opt+K33N+L27V+K43R+Y68D (SEQ ID NOs: 339 and 340), 9B8 opt+K33N+L27V+T39T+K43R+S66N (SEQ ID NOs: 341 and 342), and 9B8 opt+K33N+L27V+T39T+K43R+Y68D (“L27V”; SEQ ID NOs: 88 and 89) were subcloned into the Id-OgLuc-HT7 sandwich background as described above and assayed in HEK293 and NIH3T3 cells as described above. The luminescence generated by the sandwiched variants were compared to the luminescence generated by the […] sandwich (SEQ ID NOs: 59 and 60) (Table 38). The L27V sandwich (SEQ ID NOs: 90 and 91) and V2 sandwich (SEQ ID NOs: 94 and 95) had at least 1.3× fold-increase in luminescence in HEK293 and NIH3T3 cells.
# The sandwich and non-sandwich versions of the variants V2, 9B8 opt+K33N+L27V+K43R+Y68D, 9B8 opt+K33N+L27V+T39T+K43R+S66N, and L27V were assayed in HEK293 and NIH3T3 cells as described in Example 37. The luminescence generated by the non-sandwiched variants was compared to the luminescence generated by the sandwiched variants (Table 39).
# [3] = Exposure of OgLuc variant to urea; assay type: physicochemical; conditions: 3 M urea, 30 min at 25° C.
# Procedure: Since Firefly luciferase is known to be relatively unstable, it is much more sensitive to urea exposure. To determine whether this was also the case with the OgLuc variants, the sensitivity of the OgLuc to urea was determined 5 μl of 45.3 μM L27V enzyme was mixed with 100 μL of a urea solution (100 mM MOPS, pH 7.2, 100 mM NaCl, 1 mM CDTA, 5% glycerol and various concentrations of urea) and incubated for 30 min at room temperature. 5 μL of the urea+L27V enzyme solution was diluted 10,000-fold into DMEM without phenol red+0.1% PRIONEX®, 50 μL was mixed with 50 μL of assay reagent containing 100 μM PBI-3939 (previously described) and the luminescence was read at 10 min. (FIG. 88).
# A 0.31 mg/mL stock of purified L27V variant was diluted 100,000-fold into buffer (PBS+1 mM DTT+0.005% IGEPAL) and incubated with 3 M urea for 30 min at 25° C. and then mixed 1:1 (50 μL+50 μL) with an assay reagent containing 100 μM PBI-3939 (previously described). The reactions were read on a TECAN® INFINITE® F500 luminometer as described previously (for 100 min; 1 min read intervals) (FIG. 89).
# [4] = Stability of secreted OgLuc variants in saved media; assay type: physicochemical; conditions: secreted variant in saved media
# Procedure: To determine if the secretion signal sequence of OgLuc facilitates its secretion, the OgLuc variants 9B8, V2 and L27V were cloned into pF4Ag containing an N-terminal OgLuc secretion signal sequence. The variants were also cloned into vectors without the secretion signal sequence. CHO or HeLa cells were then plates at 100,000 cells/well in 1 mL F12 media with 10% FBS and 1× sodium pyruvate (CHO cells) or DMEM with 10% FBS and 1× sodium pyruvate (HeLa cells) into 12-well plates and incubated overnight at 37° C., 5% CO2.
# After the overnight incubation, the cells were transfected with 1 μg plasmid DNA containing 9B8, V2, or L27V with or without the secretion signal sequence using the TRANSIT®-LT1 transfection reagent (Mirus Bio) and OPTI-MEMO media (Invitrogen). The cells were again incubated overnight at 37° C., 5% CO2.
# After the second overnight incubation, the media was removed and saved for analysis. […] To 10 μL of cell lysate or saved media from each sample, 50 μL assay buffer with 40 μM PBI-3939 was added, and luminescence measured as described above.
# To determine the stability of the secreted variants, 150 μL aliquots of the saved media from each sample was placed at 37° C. or 50° C. The aliquots were then removed at different time points (0, 1, 2, 3, 5, 6, and 7 […]), frozen on dry ice, and kept at −20° C. until assayed. To assay for stability, the media aliquots were thawed to room temperature, and 10 μL of each aliquot was mixed with assay buffer with PBI-3939 (pH 6.0) as described above. Luminescence was measured as above, and the half-life (t50) determined (Table 34).
# [5] = Thermal stability of OgLuc variants at 60° C.; assay type: physicochemical; conditions: 60° C., assay buffer MES pH 6.0
# Procedure: Aliquots were removed at different time-points and placed on dry ice to freeze the samples. […] Luminescence was measured on a GLOMAX® luminometer (Promega Corp.).
# The thermal stability of the variants at 60° C. was examined as described above, except the assay buffer contained 100 mM MES pH 6.0 instead of HEPES.
molecule,measurement,setting,value
B1,"luminescence normalized to 9B8 opt, NIH3T3",[1]; PBI-3939,1.6
same,"Fold over 9B8 opt + K33N, NIH3T3","[1]; luminescence, PBI-3939",0.7
same,"Fold over Native Coelenterazine, NIH3T3",[1]; relative specificity for PBI-3939 compared to native coelenterazine,85
same,"Fold-decrease in luminescence in the presence of sandwich background, NIH 3T3 cells",[2],18
same,reduction of activity,[3],approximately 50%
same,½ life 37 C.,[4],17 days
same,½ life 50 C.,[4],11 h
same,1/2 life hours,[5],21.7 h
